Experimental data reported in US20100278834A1.

Experiments:
[1] = target: H5 hemagglutinin (HA) of H5N1 influenza A virus, strain not stated (influenza A virus (H5N1), strain not stated); assay: cross-inhibition of binding to HA; competitor: FLA3.14
[2] = target: H5 hemagglutinin (HA) of H5N1 influenza A virus, strain not stated (influenza A virus (H5N1), strain not stated); assay: cross-inhibition of binding to HA; competitor: FLD194
[3] = target: hemagglutinin of H5N1 clade 2.2 strain WS/Mong/244/05 (influenza A virus WS/Mong/244/05 (H5N1)); assay: cell-based or functional assay
[4] = target: hemagglutinin of H5N1 clade 2.3 strain Anhui/1/05 (influenza A virus Anhui/1/05 (H5N1)); assay: cell-based or functional assay
[5] = target: hemagglutinin of A/Vietnam/1203/04 (H5N1) (influenza A virus A/Vietnam/1203/04 (H5N1)); assay: cell-based or functional assay
[6] = target: hemagglutinin of H5N1 clade 2.2 strain TY/TY/1/05 (influenza A virus TY/TY/1/05 (H5N1)); assay: cell-based or functional assay
[7] = target: hemagglutinin of H5N1 clade 1 strain VN/1194.04 (influenza A virus VN/1194.04 (H5N1)); assay: cell-based or functional assay
[8] = target: hemagglutinin of H5N1 clade 1 strain A/Hong Kong/213/03 (influenza A virus A/Hong Kong/213/03 (H5N1)); assay: cell-based or functional assay
[9] = target: hemagglutinin of A/Indonesia/5/05 (H5N1, clade 2) (influenza A virus A/Indonesia/5/05 (H5N1)); assay: cell-based or functional assay
[10] = target: hemagglutinin of H5N1 clade 1 strain HK/491/97 (influenza A virus HK/491/97 (H5N1)); assay: cell-based or functional assay
[11] = target: H5 hemagglutinin (HA) of H5N1 influenza A virus, strain not stated (influenza A virus (H5N1), strain not stated); assay: cross-inhibition of binding to HA; competitor: FLD20.19

Binder	Inhibition of binding (%) [1]	Inhibition of binding (%) [2]	IC50, neutralisation of retroviral pseudotypes [3]	IC50, neutralisation of retroviral pseudotypes [4]	IC50, neutralisation of retroviral pseudotypes [5]	Reciprocal neutralising titre of culture supernatant (reciprocal titre) [5]	IC50, neutralisation of retroviral pseudotypes [6]	IC50, neutralisation of retroviral pseudotypes [7]	IC50, neutralisation of retroviral pseudotypes [8]	Reciprocal neutralising titre of culture supernatant (reciprocal titre) [9]	Reciprocal neutralising titre of culture supernatant (reciprocal titre) [10]	Inhibition of binding (%) [11]	IC50, neutralisation of retroviral pseudotypes [9]
FLD132 (antibody, V domains shown) VH: EVQLVQSGAELKMPGESLKISCKASGYTFTNYWIGWVRQTPGKGLEWMGIIFPPDSQTSYSPSFQGQVTFSVDNSISVAYIQWSSLKASDTAIYYCARSGIFDWSAPLVEAFDIWGQGTVVTVSS VL: DIQLTQSPSFLSASVGDGVTITCRASQDIYIYLAWYQQKPGKAPKLLIYAASTLQGGVPSRFSGSGSGTEFTLTINNLQPEDFATYFCQQLNGYPLTFGGGTKVEIK	0%	52%	0.001 µg/mL	1.8 µg/mL	0.001 µg/mL	1024	0.001 µg/mL	0.0016 µg/mL	0.0005 µg/mL	< 8	2048	0%	
FLD129 (antibody, V domains shown) VH: EVQLVESGGGLVQPGRSLRLSCAASGFTFSDFWMSWVRQAPGKGLEWVANIDQDGNERFYADSVKGRFTISRDNAKNSLYLQMTSLRADDTAVYYCARDGREGYFYGSGSFYNLKGLNWGQGTLLTVSS VL: QSVLTQPPSVSAAPGQRVTISCSGTSSNIGKNYVSWYQQLPGAAPKLLIYDNDKRPSGIPDRFSGSKSGTSATLGITGLQTGDEADYYCGTWDSSLSVGMFGGGTRLTVL	0%	100%	0.003 µg/mL	0.016 µg/mL	0.0017 µg/mL	323	0.006 µg/mL	0.0012 µg/mL	0.0005 µg/mL	< 8	1450	100%	0.678 µg/mL
FLD84 (antibody, V domains shown) VH: QVQLQESGPGLVKPSETLSLICAVSGASISSSYWSWIRQPPGKGLEWIGYIYYSGVTKYNPSLKSRVTLSVDTSKNHFSLKLSYVTAADTAVYYCARNLPDIAVVTAVQDATPVWFDPWGPGTLVSVSS VL: DIQLTQSPSSLSASVGDRVTITCRASQGIITYLNWYQQKPGKAPKLLIYATYSLQNGVPSRFSGSGSGTDFTLTISSLQPEDFATYYCQQSYSSLMFTFGQGTKLDIK	0%	0%	0.03 µg/mL	0.118 µg/mL	0.042 µg/mL	16	0.032 µg/mL	0.017 µg/mL	0.014 µg/mL	102	40	100%	0.03 µg/mL
FLA3.14 (antibody, V domains shown) VH: EVQLVQSGAEVKKPGESLKISCQASGYSFTSRWIGWVRQMPGKGLEWVGFIYPSDSDVRYSPSFRGQVTISADKSISTAYLQWSSLKASDTAMYFCARLGGNKDYGDYLWYFDLWGRGALVTVSS VL: EIVMTQSPDTLSVSPGERATLSCRASQSVNRRLAWYQQKPGQAPRLLIHDASTRATGIPARFSGSGSGTEFTLTISSLQSEDFAVYYCQQYDNWLSFGQGTRLEIK	100%	100%	0.067 µg/mL	0.172 µg/mL	0.065 µg/mL		0.076 µg/mL	0.086 µg/mL	0.033 µg/mL			0%	0.012 µg/mL
